To fix the notation:
T1: MERS-CoV Spike protein fragment (RBD, aa 367-606, His tag) (MERS-CoV, UniProt K9N5Q8 367-606)
T1 sequence: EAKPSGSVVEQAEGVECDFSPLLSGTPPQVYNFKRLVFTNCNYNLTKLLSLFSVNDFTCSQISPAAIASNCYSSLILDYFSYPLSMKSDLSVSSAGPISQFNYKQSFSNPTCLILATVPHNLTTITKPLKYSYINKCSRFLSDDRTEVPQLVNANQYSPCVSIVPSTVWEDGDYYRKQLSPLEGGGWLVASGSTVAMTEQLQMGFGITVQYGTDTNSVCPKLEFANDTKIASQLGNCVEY

B1: NI-607.649_G7 (antibody, V domains shown)
VH: QVQLVESGGGLVQPGGSLRLSCAASGFTFSRYAMSWVRQAPGKGLEWVSAISGSGGSTYYADSVKGRFTISRDNSKNTLYLQINSLRAEDTAVYYCAKGVRWGVDYFDYWGQGTLVTVSS
VL: not shown
B2: NI-607.529_G4 (antibody, V domains shown)
VH: QVQLQQWGAGLLKPSETLSLTCAVYGGSFSGYYWSWIRQPPGKGLEWIGEINHSGSTNYNPSLKSRVTISVDTSKNQFSLKLSSVTAADTAVYYCARASLYYSDSSGYSHPYYFDYWGQGTLVTVSS
VL: QPVLTQPPSVSGAPGQRVTISCTGSSSNIGAGYDVHWYQQLPGTAPKLLIYGNSNRPSGVPDRFSGSKSGMSASLAITGLQAEDEADYYCQSYDSSLSGWVFGGGTKLTVL
B3: NI-607.531_D8 (antibody, V domains shown)
VH: EVQLVESGGGLVQPGRSLRLSCAASGFIFDDYAMHWVRQAPGKGLEWVSGISWNSDSIGYADSVKGRFTISRDNAKNSLYLQMNSLRAEDTALYYCAKGSRSDWSNPSDYWGQGTLVTVSS
VL: SYELTQPPSVSVAPGKTARITCGGNNIGSKSVHWYQQKPGQAPVLVVYDDSDRPSGIPERFSGSNSGNTATLTISRVEAGDEADYYCQVWDSSSDPVVFGGGTKLTVL
B4: NI-607.426_E2 (antibody, V domains shown)
VH: EVQLVESGGGLVQPGGSLRLSCAASGFTFSSYDMHWVRQATGKGLEWVSAIGTAGDTYYPGSVKGRFTISRENAKNSLYLQMNSLRAEDTAVYYCARASFLDYSWLYFDYWGQGTLVTVSS
VL: not shown
B5: NI-607.531_E3 (antibody, V domains shown)
VH: EVQLVESGGGVVQPGRSLRLSCAASGFTFSSYGMHWVRQAPGKGLEWVAVISYDGSNKYYADSVKGRFTISRDNSKNTLYLQMNSLRAEDTAVYYCAKQISGYNYPYYFDYWGQGTLVTVSS
VL: not shown
B6: NI-607.274_E5 (antibody, V domains shown)
VH: EVQLVESGGGMVQPGRSLRLSCAGSGFTFSTHGMHWVRQAPGKGLEWITGITYDGSDEFYADSVKGRFTIARDNSKNMLYLQMNSLRAEDTAVYFCAKDLEWLTNYVDHWGQGTLVTVSS
VL: DIVMTQSPGTLSVSPGERATLSCRASQSVNYNLAWYQQKPGQAPRLLIFDASTRATGIPARFTGSGSGTEFTLTISSLQSEDFAVYYCQQSNAWLTFGGGTKLEIK
B7: NI-607.761_B7 (antibody, V domains shown)
VH: EVQLVESGGGVVQPGRSLRLSCAASGFTFTRYGMHWVRQAPGKGLEWVAVIWYDGNNKNYEDSVRGRFTISRDNSKNTLFLQMNSLRAEDTAVYYCARGRRGGYSYGLFDYWGQGILVTVSS
VL: AIRMTQSPSSLSASVGDRVTITCQASQDISNYLNWYQQKPGKAPKLLIYDASNLETGVPSRFSGSGSGTDFTFTISSLQPEDVATYSCQQYDNLPLTFGGGTKVEIK
B8: NI-607.820_B7 (antibody, V domains shown)
VH: EVQLVESGGGLVQPGRSLRLSCAASGFTFDDFDMHWVRQAPGKGLEWVSGVTWNSGIIGYADSVKGRFTISRDNAKNSLYLQMNSLRAEDTALYYCAKEFYPRYGSGIRSHYFGMDVWGQGTTVTVSS
VL: QSVLTQSPSASGTPGQRVTISCSGSSSNVGSNAVNWYQQLPGTAPKLLIYSNNRRPSGVPNRFSGSKSGTSASLAISGLQSDDEADYYCAAWDDSLDGPTFGGGTKLTVL
B9: NI-607.426_D4 (antibody, V domains shown)
VH: not shown
VL: EIVLTQSPATLSLSPGERATLSCRASQSVSSYLAWYQQKPGQAPRLLIYDASNRATGIPARFSGSGSGTDFTLTISSLEPEDFAVYYCQQRSNWPPVTFGQGTRLEIK
B10: NI-607.532_C8 (antibody, V domains shown)
VH: QVQLVESGGGLVKPGRSLRLSCTASGFTFGDYAMSWFRQAPGKGLEWVGFIRSKAYGGTTEYAASVKGRFSISRDDSKSIAYLQMNSLKTEDTAVYYCTRGWIVVVIEDAFDIWGQGTMVTVSS
VL: not shown
B11: NI-607.820_B6 (antibody, V domains shown)
VH: EVQLQESGPGLVKPSETLSLTCTVSGGSVSSGSYYWSWIRQPPGKGLEWIGYIYYSGSTNYNPSLKSRVTISVDTSKNQFSLKVSSVTAADTAVYYCARDSIVVVPAARPLYYGMDVWGQGTTVTVSS
VL: not shown
B12: NI-607.791_B10 (antibody, V domains shown)
VH: QVQLQQWGAGLLKPSETLSRTCAVYGGSFSDYYWSWIRQPPGKGLEWIGEVNHRGVTNYNPSLKSRVTISIDTSKSQFSLELRSVTDADTALYFCARSPFWTIAARPFDYWGRGTLVTVSS
VL: EIVMTQSPGTLSLSPGERATLSCRASQSVISNYLAWYQQKPGQAPRFLIYAASTRARGIPDRFSGSGSGTDFTLTISRLEAEDFAVYYCQQYGNSPLTFGGGTKLEIK
B13: NI-607.275_C5 (antibody, V domains shown)
VH: QVQLVESGGGLVQPGGSLRLSCAASGFTVSSNYMSWVRQAPGKGLEWVSVIYSGGSTYYADSVKGRFTISRDNSKNTLYLQMNSLRAEDTAVYYCARDFGDYYFDYWGQGTLVTVSS
VL: not shown
B14: NI-607.532_D8 (antibody, V domains shown)
VH: EVQLVESGGGVVQPGRSLRLSCAASGFTFSSYGMHWVRQAPGKGLEWVAVISYDGSNKYYADSVKGRFTISRDNSKNTLYLQMNSLRAEDTAVYYCAKQGGGQYCSGGSCYSGYFDYWGQGTLVTVSS
VL: not shown
B15: NI-607.532_D4 (antibody, V domains shown)
VH: QVQLVQSGAEVKRPGASVKVSCKASGYHFTDYYIHWVRQAPGQGLEWMGWINPNSGGTNYAQKFQGRVTMTRDTSISTAYMELSRLRSDDTAVYYCARVYYYDSSSFADYWGQGTLVTVSS
VL: not shown
notes: also called NI-607.532_D4C5

One assay addresses SARS-CoV-2 Spike (S) protein on vesicular stomatitis virus (VSV) pseudoviruses (SARS-CoV-2, UniProt P0DTC2 14-1273). Nature of the assay: cell-based or functional assay.
For B1, the “IC50, pseudovirus entry assay (luciferase, HEK 293T-ACE2 cells)” value (from here on “IC50, pseudovirus entry assay”) was greater than 100 mg/L.

As to B2, the “IC50, pseudovirus entry assay” value was greater than 100 mg/L.

On to B3, for which the “IC50, pseudovirus entry assay” value is greater than 100 mg/L.

For a further assay, the target named is T2, BSA (Sigma-Aldrich) (bovine, UniProt P02769 25-607).
T2 construct: also called bovine serum albumin; BSA control
As to the kind of experiment: direct ELISA on coated BSA. In general terms: In an ELISA, binding on a coated surface is turned into a signal by an enzyme label.
In the case of B4, the binding result was “no binding (tested: 400 nM)”.

On to B5, for which the binding result is listed as “no binding (tested: 400 nM)”.

With B6, the binding result is reported as “no binding (tested: 400 nM)”.

Take B7: the binding result was “no binding (tested: 400 nM)”.

Regarding B8, the binding result was “no binding (tested: 400 nM)”.

Turning to B2, the binding result was “no binding (tested: 400 nM)”.

Take B3: the binding result is given as “no binding (tested: 400 nM)”.

As for B9, the binding result was “no binding (tested: 400 nM)”.

For the molecule B10, the binding result is listed as “no binding (tested: 400 nM)”.

In the case of B11, the binding result is on record as “no binding (tested: 400 nM)”.

Turning to B12, the binding result is given as “no binding (tested: 400 nM)”.

As to B13, the binding result is “no binding (tested: 400 nM)”.

In a further assay the target is T3, SARS-CoV-2-S1 (RBD)-His protein (Trenzyme) (SARS-CoV-2, UniProt P0DTC2 319-541). Nature of the assay: direct ELISA on coated RBD-His.
With B4, the EC50 stood at 0.03 nM.

B5 gave an EC50 of 0.02 nM.

The molecule B14 had an EC50 of 0.0051 nM.

In turn, B1 had an EC50 of 0.024 nM.

In the case of B15, the midpoint of the response, the EC50, lay at 0.0055 nM.

On to B6, for which the EC50 came to 0.015 nM.

B7 returned an EC50 of 0.001 nM.

With B8, the EC50 is 0.082 nM.

With B2, it took 0.026 nM to reach a half-maximal effect (EC50).

In the case of B3, the EC50 amounted to 0.0045 nM.

As to B9, the EC50 was found to be 0.033 nM.

For B11, a half-maximal response (EC50) required 0.029 nM.

Molecule B12 showed an EC50 of 0.062 nM.

B13 had an EC50 of 0.02 nM.

Another assay concerns the target T3, SARS-CoV-2-S1 (RBD)-His protein …. As to the kind of experiment: iQue flow cytometry, antigen-coated beads. In general terms: In flow cytometry, cells or beads pass a laser one at a time.
The molecule B4 registered an EC50 of 2.06 nM.

Consider B5, for which the EC50 was found to be 1.4 nM.

For B14, the EC50 turned out to be 14.4 nM.

For B1, the EC50 turned out to be 5.7 nM.

Molecule B15 had an EC50 of 1 nM.

In the case of B6, the EC50 stood at 0.39 nM.

In the case of B7, the EC50 came out at 0.44 nM.

With B8, the response was half-maximal at 9 nM (EC50).

B2: the EC50 turned out to be 1.3 nM.

In the case of B3, the EC50 was 1.4 nM.

The molecule B9 displayed an EC50 of 0.76 nM.

B11 registered an EC50 of 2.4 nM.

In turn, B12 registered an EC50 of 13.7 nM.

Consider B13, for which the midpoint of the response, the EC50, lay at 1.5 nM.

In a further assay the target is recombinant SARS-CoV Spike protein (RBD, His tag) (SARS-CoV, UniProt P59594 306-527). Nature of the assay: iQue flow cytometry, antigen-coated beads.
As for B5, the EC50 was 2.6 nM.

As to B14, the EC50 amounted to 32 nM.

B1: the EC50 was determined as 22.2 nM.

Regarding B15, the EC50 was found to be 1000 nM.

Consider B6, for which the EC50 was found to be 900 nM.

On to B7, for which the EC50 was 200 nM.

With B8, the EC50 was 800 nM.

B2: the EC50 was 10 nM.

Consider B9, for which the EC50 was found to be 1000 nM.

As to B10, the EC50 was determined as 400 nM.

For B11, the EC50 was found to be 60.2 nM.

Regarding B12, the EC50 was 400 nM.

The target of another assay is T1, MERS-CoV Spike protein fragment (RBD, …). As to the kind of experiment: iQue flow cytometry, antigen-coated beads.
On to B4, for which the EC50 was found to be 600 nM.

The molecule B5 came in with an EC50 of 1000 nM.

B14 gave an EC50 of 1000 nM.

For B1, the EC50 was 800 nM.

As to B15, a half-maximal response (EC50) required 1000 nM.

B6 showed an EC50 of 900 nM.

B7 registered an EC50 of 200 nM.

With B8, the midpoint of the response, the EC50, lay at 800 nM.

B2: a half-maximal effect (EC50) was put at 1000 nM.

Regarding B3, the midpoint of the response, the EC50, lay at 1000 nM.

Consider B9, for which the EC50 worked out at 1000 nM.

Take B10: the response was half-maximal at 400 nM (EC50).

Take B11: the EC50 came out at 1000 nM.

As to B12, the concentration for a half-maximal effect (EC50) turned out to be 400 nM.

B13: the EC50 came out at 800 nM.

The target in a further assay is T3, SARS-CoV-2-S1 (RBD)-His protein …. As to the kind of experiment: competition ELISA, RBD binding to coated ACE2.
The molecule B4 registered an IC50 of 10.7 nM.

With B6, the half-maximal inhibitory concentration (IC50) stood at 12.6 nM.

B7 came in with an IC50 of 56 nM.

As to B9, the IC50 was 24.4 nM.

With B13, the IC50 stood at 36.8 nM.

The EC50 is the concentration needed to bring the measured effect to its halfway point. What is called IC50 is the concentration that gives 50% inhibition.

Source of the values: US20230242624A1 (NEURIMMUNE, published 2023).
